Columns and labels:
[1] = molecular target: T1, soluble fusion protein KDR-AP (human, UniProt P35968 20-764); assay: direct binding ELISA on KDR-coated plate, detected by anti-E tag antibody-HRP
T1 construct: extracellular domain; Expressed in NIH 3T3 cells; also called KDR-alkaline phosphatase fusion protein; immobilized KDR; not shown: human placental alkaline phosphatase (AP) of the vector AP-Tag

[2] = molecular target: KDR expressed on the surface of HUVEC (human, UniProt P35968 20-1356); assay: cell-based or functional assay
KDR expressed on the surface of HUVEC, sequence (P35968 20-1356): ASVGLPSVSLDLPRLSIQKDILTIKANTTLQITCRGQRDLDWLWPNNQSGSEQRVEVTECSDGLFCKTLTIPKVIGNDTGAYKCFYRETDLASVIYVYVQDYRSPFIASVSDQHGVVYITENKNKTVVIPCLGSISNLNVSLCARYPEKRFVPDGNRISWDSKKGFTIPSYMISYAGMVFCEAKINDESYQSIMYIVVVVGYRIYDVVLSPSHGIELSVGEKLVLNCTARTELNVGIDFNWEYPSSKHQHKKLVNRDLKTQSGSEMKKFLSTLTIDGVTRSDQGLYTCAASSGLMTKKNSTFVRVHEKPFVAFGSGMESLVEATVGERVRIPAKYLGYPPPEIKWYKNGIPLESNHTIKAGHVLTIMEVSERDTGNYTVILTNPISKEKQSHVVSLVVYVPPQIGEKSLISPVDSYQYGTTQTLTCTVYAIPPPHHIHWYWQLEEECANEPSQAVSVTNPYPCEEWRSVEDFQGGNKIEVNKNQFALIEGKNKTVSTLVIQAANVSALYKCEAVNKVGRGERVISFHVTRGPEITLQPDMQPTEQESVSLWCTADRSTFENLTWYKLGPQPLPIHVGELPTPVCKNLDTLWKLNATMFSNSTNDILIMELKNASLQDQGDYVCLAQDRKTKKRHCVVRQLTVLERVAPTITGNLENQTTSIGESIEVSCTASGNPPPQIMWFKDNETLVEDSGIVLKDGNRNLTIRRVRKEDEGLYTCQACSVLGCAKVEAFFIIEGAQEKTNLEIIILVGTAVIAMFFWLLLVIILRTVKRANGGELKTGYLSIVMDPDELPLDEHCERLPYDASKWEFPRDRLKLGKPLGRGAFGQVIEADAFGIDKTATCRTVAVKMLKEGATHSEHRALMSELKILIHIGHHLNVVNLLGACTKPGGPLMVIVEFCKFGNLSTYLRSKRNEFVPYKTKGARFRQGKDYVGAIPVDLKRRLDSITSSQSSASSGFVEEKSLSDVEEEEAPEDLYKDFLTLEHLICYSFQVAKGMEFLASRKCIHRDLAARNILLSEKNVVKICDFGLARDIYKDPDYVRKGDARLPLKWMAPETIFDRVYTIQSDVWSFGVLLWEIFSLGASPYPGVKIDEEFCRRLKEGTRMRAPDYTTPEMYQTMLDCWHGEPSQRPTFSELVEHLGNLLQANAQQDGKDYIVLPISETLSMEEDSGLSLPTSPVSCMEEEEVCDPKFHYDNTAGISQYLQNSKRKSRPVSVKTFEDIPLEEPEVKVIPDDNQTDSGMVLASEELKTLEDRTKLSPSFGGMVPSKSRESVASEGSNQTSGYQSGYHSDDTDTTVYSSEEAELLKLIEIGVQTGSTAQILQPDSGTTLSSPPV

[3] = molecular target: T1, soluble fusion protein KDR-AP; assay: BIAcore, KDR-AP immobilized (Table 2)
Method: Sensorgrams were obtained at each concentration and were evaluated using a program, BIA Evaluation 2.0, to determine the rate constants kon and koff. Kd was calculated as the ratio of rate constants koff/kon.
*All rates are determined by surface plasmon resonance using BIAcore system and are mean of at least three separate determinations.

T1 sequence (P35968 20-764): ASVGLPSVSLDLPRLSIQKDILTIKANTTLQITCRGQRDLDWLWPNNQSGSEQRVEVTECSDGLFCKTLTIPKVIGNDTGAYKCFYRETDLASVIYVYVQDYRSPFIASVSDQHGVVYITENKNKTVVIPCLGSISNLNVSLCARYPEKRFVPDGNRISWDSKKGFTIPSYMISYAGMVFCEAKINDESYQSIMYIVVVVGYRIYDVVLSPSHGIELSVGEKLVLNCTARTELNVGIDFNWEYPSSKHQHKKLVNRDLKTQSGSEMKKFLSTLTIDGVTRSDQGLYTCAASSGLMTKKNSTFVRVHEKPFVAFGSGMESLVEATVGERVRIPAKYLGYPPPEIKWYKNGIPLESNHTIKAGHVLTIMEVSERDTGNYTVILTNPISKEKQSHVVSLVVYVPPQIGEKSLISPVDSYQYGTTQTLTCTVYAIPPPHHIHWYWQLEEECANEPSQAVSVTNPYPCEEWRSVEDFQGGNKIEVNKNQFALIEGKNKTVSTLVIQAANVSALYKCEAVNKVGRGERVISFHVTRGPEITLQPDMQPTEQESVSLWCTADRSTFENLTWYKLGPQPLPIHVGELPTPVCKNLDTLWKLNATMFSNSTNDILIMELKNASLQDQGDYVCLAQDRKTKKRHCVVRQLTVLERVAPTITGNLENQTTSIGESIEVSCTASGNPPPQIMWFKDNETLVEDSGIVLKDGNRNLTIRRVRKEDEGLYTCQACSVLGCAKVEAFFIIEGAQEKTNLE

EC50 (read off the curve) [1] [nM]	EC50, antibody concentration that inhibited 50% of VEGF-stimulated mitogenesis of HUVEC ([3H]-TdR incorporation) [2] [nM]	fold higher affinity than the parent scFv [3] [fold]	Binder
~0.8	~5	–	scFv p1C11 (scFv) QVKLQQSGAELVGSGASVKLSCTTSGFNIKDFYMHWVKQRPEQGLEWIGWIDPENGDSDYAPKFQGKATMTADSSSNTAYLQLSSLTSEDTAVYYCNAYYGDYEGYWGQGTTVTVSSGGGGSGGGGSGGGGSDIELTQSPAIMSASPGEKVTITCSASSSVSYMHWFQQKPGTSPKLWIYSTSNLASGVPARFSGSGSGTSYSLTISRMEAEDAATYYCQQRSSYPFTFGSGTKLEIK
–	–	~2.5	chimeric anti-KDR antibody c-p1C11 (antibody, V domains shown, Bivalent chimeric IgG1/kappa with the mouse variable domains of p1C11; expressed in COS cells and purified on Protein G. The leader peptide added for secretion is not part of the mature protein; also called Chimeric-p1C11; c-p1C11 IgG) VH: QVKLQQSGAELVGSGASVKLSCTTSGFNIKDFYMHWVKQRPEQGLEWIGWIDPENGDSDYAPKFQGKATMTADSSSNTAYLQLSSLTSEDTAVYYCNAYYGDYEGYWGQGTTVTVSS VL: DIELTQSPAIMSASPGEKVTITCSASSSVSYMHWFQQKPGTSPKLWIYSTSNLASGVPARFSGSGSGTSYSLTISRMEAEDAATYYCQQRSSYPFTFGSGTKLEIK
